Source: patent US20260234188A1, “CHEMOKINE-BINDING PEPTIDES” (Oxford University Innovation Limited, priority 2022, published 2026)

How the values were obtained:
CXCL10 = molecular target: T1, CXCL10 (Homo sapiens, UniProt P02778); assay: CXCL10-induced activated T-cell migration, transwell assay; assay type: cell-based; settings: dose of 20 μM
T1 construct: purchased Peprotech
T1 sequence (P02778 22-98): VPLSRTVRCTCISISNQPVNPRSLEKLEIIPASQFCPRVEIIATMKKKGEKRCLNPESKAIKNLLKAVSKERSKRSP
Experimental: FIG. 2. […] BK1.2 is described in (Darlot, 2020). […] Chemokines used are indicated by the name, followed in parenthesis by the supplier code (P in supplier code indicates Peprotech). […] All experiments were performed at EC80 doses of indicated chemokine. Data are shown as box-whisker plots of three technical and three biological replicates. Statistically significant differences (compared to control, indicated by #), using Dunnett's test with correction for multiple comparisons, are indicated by asterisks: ****=P≤0.0001, ***=P≤0.001, **=P≤0.01, *=P≤0.05.
FIG. 11. […] Technical replicates are shown as individual data points. […] The response curve (solid blue line) and its 95% confidence interval (grey ribbon) were calculated using a 4-parameter log-logistic plot.
(§1) Briefly, cell migration assays use THP1 cells (human monocyte) and primary human buffy coat white cells (consisting of neutrophil granulocytes, monocytes, and lymphocytes), and activated T-cells. THP1 cells and primary monocytes respond to CCL2, CCL3, CCL5, CCL8 and CXCL4, granulocytes to CXCL1 and CXCL8, activated T-cells to CXCL9/10/11. Assays are performed in 96-well Boyden chambers, and migrated cells counted and characterized using and ATTUNE Flow Cytometer as described. […]

CC and CXC chemokines = assay: Chemokine-induced cell migration assays, pooled over chemokines (meta-analysis); assay type: cell-based, human; settings: CC chemokines
Experimental: FIG. 16. Effect of HD2 alanine mutations on chemotaxis. […] All experiments were performed as three technical and three biological replicates, and individual data points are indicated, and coloured by the chemokine used. Statistically significant differences (compared to control, coloured blue), using Dunnett's test with correction for multiple comparisons, are indicated by asterisks: ****=P≤0.0001, ***=P≤0.001, **=P≤0.01, *=P≤0.05, n=45 observations per group (three technical and three biological replicates for each chemokine). FIG. 16B, Faceted plots of change in median normalised cell count between alanine mutant and wild-type HD2 peptide obtained in cell migration assays (Y-axis, Δmedian normalised cell count) versus alanine mutated residue (X-axis). Chemokines used for each experiment are indicated in the strip to the right of each plot. Statistically significant differences compared to parental HD2 are shown as red dots. […]
as §1, with “THP1 cells and primary monocytes respond to CCL2, CCL3, CCL5, CCL8 and CXCL4, granulocytes to CXCL1 and CXCL8, activated T-cells to CXCL9/10/11.” left out

B1: EVA4: parental class A tick evasin protein of HD2, expressed in HEK293F cells (protein)
chain: EVPQMTSSSAPDLEEEDDYTAYAPLTCYFTNSTLGLLAPPNCSVLCNSTTTWFNETSPNNASCLLTVDFLTQDAILQENQPYNCSVGHCDNGTCAGPPRHAQCW
inhibition of cell migration (CXCL10): did not inhibit | inhibition of CC chemokines in dose-response experiments (CC and CXC chemokines): inhibited
